Results published in IntAct's records for PubMed 20923837.

Columns and labels:
[1] = biological target: vps35_mouse Vps35 (UniProt Q9EQH3)
[2] = biological target: tbcd5_human TBC1D5 (UniProt Q92609)

effect of a mutation on the interaction [1]: with no effect
effect of a mutation on the interaction [2]: disrupting interaction strength
Substance: Vacuolar protein sorting-associated protein 29 (Mus musculus) (from UniProt Q9QZ88) L152E
